Test results taken from US20200276294, “Methods and Compositions for Activation of Innate Immune Responses Through RIG-I Like Receptor Signaling” (University of Washington through its Center for …, published 2020).
Residue numbers refer to the chain shown, from its start.

Assays:
[1] = target: T1, RIG-I (full-length) (UniProt O95786 O95786:1-925); assay: footprint; limited trypsin proteolysis, RD and helicase+CARDs protected; AMP-PNP
T1 sequence: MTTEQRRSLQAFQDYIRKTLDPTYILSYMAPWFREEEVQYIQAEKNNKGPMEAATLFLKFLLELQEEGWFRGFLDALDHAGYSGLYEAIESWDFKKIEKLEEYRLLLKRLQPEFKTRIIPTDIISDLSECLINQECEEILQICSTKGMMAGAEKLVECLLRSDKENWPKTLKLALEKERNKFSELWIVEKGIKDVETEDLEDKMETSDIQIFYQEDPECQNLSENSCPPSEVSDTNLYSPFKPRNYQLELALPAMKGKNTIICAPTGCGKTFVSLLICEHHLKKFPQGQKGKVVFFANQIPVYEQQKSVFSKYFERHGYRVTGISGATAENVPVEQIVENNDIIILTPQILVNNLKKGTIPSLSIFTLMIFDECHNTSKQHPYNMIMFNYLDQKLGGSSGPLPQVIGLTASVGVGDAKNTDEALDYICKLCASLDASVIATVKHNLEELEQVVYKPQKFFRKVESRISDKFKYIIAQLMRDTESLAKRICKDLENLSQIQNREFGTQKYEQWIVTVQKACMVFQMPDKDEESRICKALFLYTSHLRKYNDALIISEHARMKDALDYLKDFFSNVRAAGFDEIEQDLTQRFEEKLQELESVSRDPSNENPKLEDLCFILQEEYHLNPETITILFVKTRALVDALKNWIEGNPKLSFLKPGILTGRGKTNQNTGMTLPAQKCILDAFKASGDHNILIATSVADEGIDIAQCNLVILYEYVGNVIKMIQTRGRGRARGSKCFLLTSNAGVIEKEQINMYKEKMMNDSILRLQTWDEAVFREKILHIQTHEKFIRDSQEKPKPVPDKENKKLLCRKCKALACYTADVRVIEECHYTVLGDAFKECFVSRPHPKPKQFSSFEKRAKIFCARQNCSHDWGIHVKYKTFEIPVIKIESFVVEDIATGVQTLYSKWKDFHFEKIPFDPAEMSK

[2] = target: T1, RIG-I (full-length); assay: footprint; limited trypsin proteolysis, RD and helicase+CARDs protected; EMSA not possible
Protocol: RIG-I is maintained in an auto-repressed conformation in uninfected cells where the CARDs interact with either the C-terminal repressor domain (RD), the helicase insertion domain (Hel2i), or both domains. […] To further assess RNA interactions with RIG-I, and to determine how HCV PAMP RNA interacts with the helicase domain and RD of RIG-I, limited-trypsin proteolysis of RIG-I/RNA complexes were conducted for nine RNA constructs selected to represent a range of PAMP activity (FIG. 3). RIG-I is highly sensitive to trypsin proteolysis in the absence of PAMP RNA; however, upon binding to an RNA ligand RIG-I undergoes conformational changes that protect the RD and other RNA-bound domains from trypsin digestion.
Various amounts of RNA (0-10 pmol) were mixed with 30 pmol purified RIG-I protein, 2 μl of 5× reaction buffer (20 mM Tris-HCl, pH 8.0; 1.5 mM MgCl₂; 1.5 mM DTT; 70 mM KCl), 0.67 μl AMP-PNP (10 mg/ml), and nuclease-free water up to 10 μl total volume. Reactions were incubated for 5 minutes at room temperature. […] SDS-PAGE Laemmli sample buffer (Bio-Rad) was then added to the samples and reaction products were analyzed by SDS-PAGE followed by silver stain using the SilverQuest silver staining kit (Invitrogen) as per the manufacturer's instructions.

[3] = target: T1, RIG-I (full-length); assay: EMSA; EC10 1.42 pmol RIG-I; >50% of RNA bound at 8 pmol; 10 pmol RNA, 20 mM Tris pH 8.0, 1.5 mM MgCl2, 37 C; details: stem-loops
[4] = target: T1, RIG-I (full-length); assay: EMSA; EC50 over all constructs 2.28-7.31 pmol, individual value in figure only; high signaling
[5] = target: T1, RIG-I (full-length); assay: EMSA; no binding at 0-10 pmol RIG-I; limited RD protection in trypsin assay; details: stem-loops

B1: poly-U 62-C (ssRNA)
RNA: UUUUUUUUUUUUUUUUUUUUUUUUUUUUUUUUUUUUUUUUUUUUCUUUUUUUUUUUUUUUUU
modifications: 5'-triphosphate; three G at 5' end
binding result [1]: binds

B2: poly-U 62 (ssRNA)
RNA: B1 RNA with C45U
modifications: 5'-triphosphate; three G at 5' end
binding result [2]: binds

B3: X-region-U34 (ssRNA)
RNA: GGGUGGCUCCAUCUUAGCCCUAGUCACGGCUAGCUGUGAAAGGUCCGUGAGCUUUUUUUUUUUUUUUUUUUUUUUUUUUUUUUUUUCGCUUGACUGCAGAGAGUGCUGAUACUGGCCUCUCUGCAGAUCAAGU
modifications: 5'-triphosphate
EC50 [3]: < 8 pmol

B4: Con1 pU/UC (ssRNA)
RNA: GGCCAUCCUGUUUUUUUCCCUUUUUUUUUUUCUUUUUUUUUUUUUUUUUUUUUUUUUUUUUUUUUUCUCCUUUUUUUUUCCUCUUUUUUUCCUUUUCUUUCCUUU
modifications: 5'-triphosphate; three G at 5' end
binding result [4]: binds

B5: X-region (ssRNA)
RNA: GGUGGCUCCAUCUUAGCCCUAGUCACGGCUAGCUGUGAAAGGUCCGUGAGCCGCUUGACUGCAGAGAGUGCUGAUACUGGCCUCUCUGCAGAUCAAGU
modifications: 5'-triphosphate
binding result [5]: no binding

B6: U17core (ssRNA)
RNA: GGCCAUCCUGUUUUUUUCCCUUUUUUUUUUUCUUUUUUUUUUUUUUUUUCUCCUUUUUUUUUCCUCUUUUUUUCCUUUUCUUUCCUUUCCCCCCCCCCCCCCCCC
modifications: 5'-triphosphate; three G at 5' end
binding result [1]: binds

B7: JFH1 pU/UC (ssRNA)
RNA: ACUGUUCCUUUUUUUUUUUUUUUUUUUUUUUUUUUUUUUUUUUUUUUUUUUCUUUUUUUUUUUUUUCCCUCUUUCUUCCCUUCUCAUCUUAUUCUACUUUCUUUCUU
modifications: 5'-triphosphate; three G at 5' end
binding result [1]: binds
